No end group written: not given here. MAL‑PEG24 = bi-functional PEG24 molecule (Mal-PEG24)
Tests used:
Format in all cases: cell-based
[1] = molecular target: IL-15 (Homo sapiens, UniProt P40933); experiment: CTLL2 proliferation assay (WST-1), IL-15, dual peptide; conditions: CTLL2 cells, IL-15 2.5 ng/ml and 5 ng/ml, increasing BNZ132-PEG-130 (0.1-10 uM)
[2] = molecular target: IL-2 (Homo sapiens, UniProt P60568); experiment: CTLL2 proliferation assay (WST-1), IL-2, dual peptide; conditions: CTLL2 cells, IL-2 5 u/ml and 10 u/ml, increasing BNZ132-PEG-130 (0.1-10 uM)
Sequence of IL-2 (P60568 21-153): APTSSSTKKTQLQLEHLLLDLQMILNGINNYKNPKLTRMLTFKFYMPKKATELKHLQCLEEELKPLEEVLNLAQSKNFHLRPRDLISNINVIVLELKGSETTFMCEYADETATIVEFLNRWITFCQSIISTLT

[3] = test system: IL-6; experiment: T1165 proliferation assay (WST-1), IL-6, dual peptide; conditions: T1165 cells, IL-6 0.1 ng/ml, increasing BNZ132-PEG-130

Sequence of IL-15 (P40933 49-162): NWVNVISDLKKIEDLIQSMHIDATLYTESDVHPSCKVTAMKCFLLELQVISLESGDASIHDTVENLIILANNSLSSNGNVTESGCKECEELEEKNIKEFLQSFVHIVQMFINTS

IKEFLQSFIHIVQSIINT (SEQ ID NO: 130)—MAL-PEG24—SLTHLIERSSRAVLQSLLRASRQ (SEQ ID NO: 131) (linker (positions not given here) via MAL‑PEG24; also: MAL-PEG24 attachment sites not given here) [BNZ132-PEG-130, BNZ132-1 conjugated to BNZ130 via a PEG24 linker; dual peptide antagonist]
inhibited in a dose response manner: inhibition of IL-15-induced proliferation [1] | inhibition of IL-2-induced proliferation [2] | inhibition of IL-6-induced proliferation [3]
